# From publication PMC3622925
# Biological target: Trichomonas vaginalis virus 1 strain UH9 coat protein (Trichomonas vaginalis virus 1 (TVV1), strain UH9)
# Experiment: cryo-EM structure
substance,measurement,value
Trichomonas vaginalis virus 1 strain UH9 coat protein (natural protein),stoichiometry N (subunits per capsid),120
